Source: the PETadex activity labels

Experiments:
PET [1] = experiment: Proxy for plastic degradation [Released monomer concentration (HPLC/LC-MS) (TA)]; conditions: pH 7
PET [2] = experiment: Proxy for plastic degradation [Released monomer concentration (HPLC/LC-MS) (BA)]; conditions: pH 7
PET [3] = experiment: Proxy for plastic degradation [Released monomer concentration (HPLC/LC-MS) (TPA+EG)]; conditions: pH 8, 70 °C, part of the chain shown
PET [4] = experiment: Proxy for plastic degradation [Crystallinity (DSC)] (% crystallinity loss); conditions: pH 9.4
PET [5] = experiment: Proxy for plastic degradation [Released monomer concentration (HPLC/LC-MS) (Total aromatic products)] (nmol/(min*cm²)); conditions: pH 9
PET [6] = experiment: Proxy for plastic degradation [Released monomer concentration (HPLC/LC-MS) (TPA+MHET)]; conditions: pH 9

B1: unnamed (protein)
chain: MTHQIVTTQYGKVKGTTENGVHKWKGIPYAKPPVGQWRFKAPEPPEVWEDVLDATAYGPICPQPSDLLSLSYTELPRQSEDCLYVNVFAPDTPSQNLPVMVWIHGGAFYLGAGSEPLYDGSKLAAQGEVIVVTLNYRLGPFGFLHLSSFNEAYSDNLGLLDQAAALKWVRENISAFGGDPDNVTVFGESAGGMSIAALLAMPAAKGLFQKAIMESGASRTMTKEQAASTSAAFLQVLGINEGQLDKLHTVSAEDSLKAADQLRIAEKENIFQLFFQPALDPKTLPEEPEKAIAEGAASGIPLLIGTTRDEGYLFFTPDSDVHSQETLDAALEYLLGKPLAEKAADLYPRSLESQIHMMTDLLFWRPAVAYASAQSHYAPVWMYRFDWHPKKPPYNKAFHALELPFVFGNLDGLERMAKAEITDEVKQLSHTIQSAWITFAKTGNPSTEAVNWPAYHEETRETLILDSEITIENDPESEKRQKLFPSKGE
Proxy for plastic degradation (PET [1]; 1 h): 0 µM | Proxy for plastic degradation (PET [1]; 2 h): 100 µM | Proxy for plastic degradation (PET [2]; 1 h): 10 mM | Proxy for plastic degradation (PET [2]; 2 h): 1250 mM

B2: unnamed (protein)
chain: QLGAIENGLESGSANACPDAILIFARGSTEPGNMGITVGPALANGLESHIRNIWIQGVGGPYDAALATNFLPRGTSQANIDEGKRLFALANQKCPNTPVVAGGYSQGAALIAAAVSELSGAVKEQVKGVALFGYTQNLQNRGGIPNYPRERTKVFCNVGDAVCTGTLIITPAHLSYTIEARGEAARFLRDRIRA
Proxy for plastic degradation (PET [3]; 0 h): 0% | Proxy for plastic degradation (PET [3]; 24 h): 38% | Proxy for plastic degradation (PET [3]; 48 h): 50% | Proxy for plastic degradation (PET [3]; 72 h): 70% | Proxy for plastic degradation (PET [3]; 96 h): 90%

B3: unnamed (protein)
chain: MNFPRASRLMQAAVLGGLMAVSAAATAQTNPYARGPNPTAASLEASAGPFTVRSFTVSRPSGYGAGTVYYPTNAGGTVGAIAIVPGYTARQSSIKWWGPRLASHGFVVITIDTNSTLDQPSSRSSQQMAALRQVASLNGTSSSPIYGKVDTARMGVMGWSMGGGGSLISAANNPSLKAAAPQAPWDSSTNFSSVTVPTLIFACENDSVAPVASSALPIYDSMSRNAKQFLEINGGSHYCANSGNSNQALIGKKGVAWMKRFMDNDTRYSTFACENPNSTRVSDFRTANCSLEHHHHHH
Proxy for plastic degradation (PET [4]): 3.2

B4: unnamed (protein)
chain: MNFPRASRLMQAAVLGGLMAVSAAATAQTNPYARGPNPTAASLEASAGPFTVRSFTVSRPSGYGAGTVYYPTNAGGTVGAIAIVPGYTARQSSIKWWGPRLASHGFVVITIDTNSTLDQPSSRSSQQMAALRQVASLNGTSSSPIYGKVDTARMGVMGWSMGGGGSLISAANNPSLKAAAPQAPWDSSTNFSSVTVPTLIFACENDSVAPVNSSALPIYDSMSRNAKQFLEINGGSHSCANSGNSNQALIGKKGVAWMKRFMDNDTRYSTFACENPNSTRVSDFRTANCSLEHHHHHH
Proxy for plastic degradation (PET [4]): 0.6

B5: unnamed (protein)
chain: MNFPRASRLMQAAVLGGLMAVSAAATAQTNPYARGPNPTAASLEASAGPFTVRSFTVSRPSGYGAGTVYYPTNAGGTVGAIAIVPGYTARQSSIKWWGPRLASHGFVVITIDTNSTLDQPSSRSSQQMAALRQVASLNGTSSSPIYGKVDTARMGVMGWSMGGGGSLISAANNPSLKAAAPQAPWDSSTNFSSVTVPTLIFACENDSIAPVNSSALPIYDSMSRNAKQFLEINGGSHSCANSGNSNQALIGKKGVAWMKRFMDNDTRYSTFACENPNSTRVSDFRTANCSLEHHHHHH
Proxy for plastic degradation (PET [4]): 1.5

B6: unnamed (protein)
chain: MNFPRASRLMQAAVLGGLMAVSAAATAQTNPYARGPNPTAASLEASAGPFTVRSFTVSRPSGYGAGTVYYPTNAGGTVGAIAIVPGYTARQSSIKWWGPRLASHGFVVITIDTNSTLDQPSSRSSQQMAALRQVASLNGTSSSPIYGKVDTARMGVMGWSMGGGGSLISAANNPSLKAAAPQAPWDSSTNFSSVTVPTLIFACENDSVAPVASSALPIYDSMSRNAKQFLEINGGSHSCANSGNSNQALIGKKGVAWMKRFMDNDTRYSTFACENPNSTRVSDFRTANCSLEHHHHHH
Proxy for plastic degradation (PET [4]): 2

B7: unnamed (protein)
chain: ANPYERGPNPTDALLEARSGPFSVSEENVSRLSASGFGGGTIYYPRENNTYGAVAISPGYTGTEASIAWLGERIASHGFVVITIDTITTLDQPDSRAEQLNAALNHMINRASSTVRSRIDSSRLAVMGHSMGGGGSLRLASQRPDLKAAIPLTPWHLNKNWSSVTVPTLIIGADLDTIAPVATHAKPFYNSLPSSISKAYLELDGATHVAPNIPNKIIGKYSVAWLKRFVDNDTRYTQFLCPGPRDGLFGEVEEYRSTCPFYPNSSSVDKLAAALE
Proxy for plastic degradation (PET [5]): 6.5

B8: unnamed (protein)
chain: ANPYERGPNPTDALLEARSGPFSVSEENVSRLSASGFGGGTIYYPRENNTYGAVAISPGYTGTEASIAWLGERIASHGFVVITIDTITTLDQPDSRAEQLNAALNHMINRASSTVRSRIDSSRLAVMGHSMGGGGSLRLASQRPDLKAAIPLTPWHLNKNWSSVTVPTLIIGADLDTIAPVATHAKPFYNSLPSSISKAYLELDGATHWAPNIPNKIIGKYSVAWLKRFVDNDTRYTQFLCPGPRDGLFGEVEEYRSTCPFYPNSSSVDKLAAALE
Proxy for plastic degradation (PET [5]): 3

B9: unnamed (protein)
chain: ANPYERGPNPTDALLEARSGPFSVSEENVSRLSASGFGGGTIYYPRENNTYGAVAISPGYTGTEASIAWLGERIASHGFVVITIDTITTLDQPDSRAEQLNAALNHMINRASSTVRSRIDSSRLAVMGHSMGGGGSLRLASQRPDLKAAIPLTPWHLNKNWSSVTVPTLIIGADLDTIAPVATHAKPFYNSLPSSISKAYLELDGATHLAPNIPNKIIGKYSVAWLKRFVDNDTRYTQFLCPGPRDGLFGEVEEYRSTCPFYPNSSSVDKLAAALE
Proxy for plastic degradation (PET [5]): 0.5

B10: unnamed (protein)
chain: MNPFEKGPDPTKTMLEASTGPFTYTTTTVSSTTASGYRQGTIYHPTNVTGPFAAVAVVPGYLASQSSINWWGPRLASHGFVVITIDTNSTSDQPPSRATQLMAALNQLKTFSNTSSHPIYRKVDPNRLGVMGWSMGGGGTLIAARDNPTLKAAIPFAPWNSSTNFSTVSVPTLIIACESDSTAPVNSHASPFYNSLPSTTKKAYLEMNNGSHSCANSGNSNAGLIGKYGVSWMKRFMDNDTRFSPYLCGAPHQADLSLTAIDEYRENCPY
Proxy for plastic degradation (PET [6]; 30 °C): 795 µM | Proxy for plastic degradation (PET [6]; 40 °C): 790 µM
